Key:
Settings in all cases: protein: recombinant; tags: N-terminal 6His-6Lys tag, TEV site; label: biotin (internal dT, streptavidin chip); dumbbell of two hairpins with T7 loops, nick between the 5' and 3' ends; stems 13 and 12 bp
PARP-1 full-length [1] = target: T1, PARP-1 full-length (human, UniProt P09874 2-1014); assay: SPR; olaparib (10 mM [sic]); SPR (Biacore 8K): 20 mM HEPES, 150 mM NaCl, 1 mM TCEP, 0.05% Tween-20, 1% (v/v) (component not given), pH not stated, 25 C; PARP-1 0.078-20 nM; n = 6
T1 sequence (P09874 2-1014): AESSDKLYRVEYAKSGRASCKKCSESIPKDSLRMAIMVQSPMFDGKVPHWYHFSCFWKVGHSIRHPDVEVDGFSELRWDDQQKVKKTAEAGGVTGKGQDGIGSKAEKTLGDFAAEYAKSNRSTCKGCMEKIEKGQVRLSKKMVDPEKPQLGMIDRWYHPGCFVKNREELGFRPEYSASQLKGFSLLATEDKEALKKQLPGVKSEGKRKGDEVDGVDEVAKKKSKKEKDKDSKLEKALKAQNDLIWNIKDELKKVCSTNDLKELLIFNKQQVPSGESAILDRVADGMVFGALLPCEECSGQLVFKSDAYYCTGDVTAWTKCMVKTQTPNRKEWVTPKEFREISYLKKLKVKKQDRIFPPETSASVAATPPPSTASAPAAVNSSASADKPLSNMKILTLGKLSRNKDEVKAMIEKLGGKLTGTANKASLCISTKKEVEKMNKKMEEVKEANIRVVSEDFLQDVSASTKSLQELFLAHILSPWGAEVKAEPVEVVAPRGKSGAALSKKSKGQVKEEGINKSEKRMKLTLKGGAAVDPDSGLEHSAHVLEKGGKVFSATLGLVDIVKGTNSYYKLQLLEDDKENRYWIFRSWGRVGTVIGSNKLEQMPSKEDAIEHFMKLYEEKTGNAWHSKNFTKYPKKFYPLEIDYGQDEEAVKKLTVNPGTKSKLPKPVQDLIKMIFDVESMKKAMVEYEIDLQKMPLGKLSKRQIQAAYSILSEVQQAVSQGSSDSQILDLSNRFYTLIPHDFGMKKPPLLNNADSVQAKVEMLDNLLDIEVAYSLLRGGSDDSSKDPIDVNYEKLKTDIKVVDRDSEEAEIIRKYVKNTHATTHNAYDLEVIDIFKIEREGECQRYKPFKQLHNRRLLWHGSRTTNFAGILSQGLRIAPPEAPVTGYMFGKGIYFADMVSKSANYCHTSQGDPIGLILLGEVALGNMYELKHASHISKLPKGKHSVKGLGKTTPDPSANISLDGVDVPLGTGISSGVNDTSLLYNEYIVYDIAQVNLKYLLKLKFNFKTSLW

PARP-1 full-length [2] = target: T1, PARP-1 full-length; assay: SPR; no inhibitor; SPR (Biacore 8K): 20 mM HEPES, 150 mM NaCl, 1 mM TCEP, 0.05% Tween-20, 1% (v/v) (component not given), pH not stated, 25 C; PARP-1 0.078-20 nM; n = 6
PARP-1 full-length [3] = target: T1, PARP-1 full-length; assay: SPR; veliparib (10 mM [sic]); SPR (Biacore 8K): 20 mM HEPES, 150 mM NaCl, 1 mM TCEP, 0.05% Tween-20, 1% (v/v) (component not given), pH not stated, 25 C; PARP-1 0.078-20 nM; n = 6
PARP-1 full-length [4] = target: T1, PARP-1 full-length; assay: SPR; EB-47 (100 mM [sic]); SPR (Biacore 8K): 20 mM HEPES, 150 mM NaCl, 1 mM TCEP, 0.05% Tween-20, 1% (v/v) (component not given), pH not stated, 25 C; PARP-1 0.078-20 nM; n = 6

B1: biotinylated hairpin DNA (dumbbell single-strand break model) (structured_DNA)
DNA: GACAACCCGGCGCTTTTTTTGCGCCGGGTTGTCTGGCCCAGTTCGTTTTTTTCGAACTGGGCCA
modifications: biotin-dT at position 17 (written as T; between S1 and S2)
Kd (PARP-1 full-length [1]): 2.1 nM | Kd (PARP-1 full-length [2]): 2.1 nM | Kd (PARP-1 full-length [3]): 4.2 nM | Kd (PARP-1 full-length [4]): 0.13 nM

Reference: publication PMC7913765, “Dynamics of the HD regulatory subdomain of PARP-1; substrate access and allostery in PARP activation and inhibition”
